Binding signal (% H-NS-bound DNA lost) and binding signal (% H-NS K120ace-bound DNA lost) data for one substance are collected here from article PMC10899749.

The subject of series [1] is H-NS (Edwardsiella piscicida EIB202). In words: competition EMSA. The settings on record: EMSA: 20 ng Cy5 probe, 20 mM Tris pH 8.0, 150 mM NaCl, 0.1 mM DTT, 0.1 mM EDTA, 200 ng poly(dI:dC), 25 C, 30 min; 10% PAGE in Tris-glycine at 4 C.
Series [2] has as its system H-NS K120ace (Edwardsiella piscicida EIB202). In words: competition EMSA. As to conditions: EMSA: 20 ng Cy5 probe, 20 mM Tris pH 8.0, 150 mM NaCl, 0.1 mM DTT, 0.1 mM EDTA, 200 ng poly(dI:dC), 25 C, 30 min; 10% PAGE in Tris-glycine at 4 C.

Substance PesrB (esrB promoter) registered a binding signal (% H-NS-bound DNA lost) in series [1] of 43. The substance further registered a binding signal (% H-NS K120ace-bound DNA lost) in series [2] of 87.
